Data taken from paper doi:10.1101/2022.06.04.494830, “The oncogenic fusion protein EWS-FLI1 promotes premature ageing of biomolecular condensates by catalyzing fibril formation” (bioRxiv, 2022).

Target: PU.1 DNA-binding domain (PU.1^DBD, PU.1 168-270) (human, UniProt P17947 168-270)
Assay: NMR titration; 1H,15N-HSQC of 50 uM 15N PU.1 168-270 in 50 mM sodium phosphate pH 6.5, 25 C, titrated with unlabeled EWS^LCD (2 mM stock in 20 mM CAPS pH 11) to 12.5, 25, 50, 100 and 150 uM (~3:1)
Settings: both partners purified

B1: EWS low-complexity domain (EWS^LCD, EWS 1-264) (domain or fragment)
chain: MASTDYSTYSQAAAQQGYSAYTAQPTQGYAQTTQAYGQQSYGTYGQPTDVSYTQAQTTATYGQTAYATSYGQPPTGYTTPTAPQAYSQPVQGYGTGAYDTTTATVTTTQASYAAQSAYGTQPAYPAYGQQPAATAPTRPQDGNKPTETSQPQSSTGGYNQPSLGYGQSNYSYPQVPGSYPMQPVTAPPSYPPTSYSSTQPTSYDQSSYSQQNTYGQPSSYGQQSSYGQQSSYGQQPPTSYPPQTGSYSQAPSQYSQQSSSYGQQ
notes: In the fluorescence microscopy 1% of the EWS^LCD carried DyLight 650 or 488, attached through a dye-labelled KLPETGG peptide with sortase; also called EWS^LCD,650; EWS^LCD,488; source: E. coli BL21 Star (DE3) or BL21 (DE3) pLysS, purified (IMAC or cation exchange, TEV cleavage, SEC; 20 mM CAPS pH 11); not shown: His tag (6 or 8 x), N-terminal, cleaved
- binding result: binds
